other: Tm of STAT3 with bound peptide (thermal shift) data for one molecule are collected here from publication PMC12014907.

This assay addresses STAT3^136-705, P40763. The assay can be described thus: thermal shift assay. To be noted: chain shown with the change; 25 μM phosphopeptides; parent: est. 54; read off a plot.

STAT3^136-705, P40763, sequence (P40763 136-705): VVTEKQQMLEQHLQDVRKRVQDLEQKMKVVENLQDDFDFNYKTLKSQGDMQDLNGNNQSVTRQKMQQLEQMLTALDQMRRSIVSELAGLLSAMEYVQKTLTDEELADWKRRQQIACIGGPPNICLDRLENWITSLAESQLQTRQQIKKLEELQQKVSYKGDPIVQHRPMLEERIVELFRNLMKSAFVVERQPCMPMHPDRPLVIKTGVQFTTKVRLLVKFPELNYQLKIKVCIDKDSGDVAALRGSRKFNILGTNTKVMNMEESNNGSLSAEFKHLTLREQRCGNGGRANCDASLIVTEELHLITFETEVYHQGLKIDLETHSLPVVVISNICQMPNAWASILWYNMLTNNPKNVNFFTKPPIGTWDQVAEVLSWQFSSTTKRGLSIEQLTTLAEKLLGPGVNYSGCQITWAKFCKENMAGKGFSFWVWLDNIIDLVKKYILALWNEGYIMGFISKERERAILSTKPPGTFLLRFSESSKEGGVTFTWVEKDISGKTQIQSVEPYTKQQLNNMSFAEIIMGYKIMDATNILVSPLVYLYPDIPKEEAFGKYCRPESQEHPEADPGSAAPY

B1: gp130 phosphopeptide R168I (peptide)
chain: SGYIHQVPSV
For B1, the other: Tm of STAT3 with bound peptide (thermal shift) was found to be 55 °C.
